The term EC50 denotes the midpoint of the concentration-response curve.

The target of the test is recombinant prefusion stabilized SARS-CoV-2-2P spike protein (SARS-CoV-2) (UniProt P0DTC2).

“D72-15: VHH72-GS-hIgG1hinge-hIgG1Fc-L234A-L235A-P329G (Fc fusion)”: the EC50 worked out at 0.014 µg/mL.

Values taken from patent publication US20230227537A1.
